Measurements: patent US20110262445A1 (CEPHALON AUSTRALIA, published 2011)
Changes are numbered by the printed parent chain. In names and notes the source's numbering stands.

T1: human IL-23 (human, UniProt P29460 23-328; Q9NPF7 20-189)
T1 construct: Recombinant (Ebioscience); HIS-tagged in flow cytometry, biotinylated in some assays; also called hIL-23; rhIL-23
T1 sequence 1: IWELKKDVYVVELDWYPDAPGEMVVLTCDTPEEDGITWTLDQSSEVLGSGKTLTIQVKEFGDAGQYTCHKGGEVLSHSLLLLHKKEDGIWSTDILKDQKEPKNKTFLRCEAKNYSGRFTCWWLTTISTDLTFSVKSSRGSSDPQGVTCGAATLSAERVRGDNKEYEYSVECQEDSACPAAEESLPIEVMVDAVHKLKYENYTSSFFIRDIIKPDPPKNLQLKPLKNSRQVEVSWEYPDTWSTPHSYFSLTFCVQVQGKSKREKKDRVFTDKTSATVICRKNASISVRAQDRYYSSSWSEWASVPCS
T1 sequence 2: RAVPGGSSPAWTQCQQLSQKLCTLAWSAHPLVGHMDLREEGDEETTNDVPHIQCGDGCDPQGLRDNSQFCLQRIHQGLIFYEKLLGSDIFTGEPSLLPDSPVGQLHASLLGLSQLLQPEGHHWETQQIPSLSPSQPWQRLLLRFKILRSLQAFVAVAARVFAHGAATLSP

T2: human IL-12 (human, UniProt P29460 23-328; P29459 23-219)
T2 construct: Recombinant (Peprotech); FLAG-tagged IL-12 in the flow cytometry assays, biotinylated in the IL-12Rβ2 assay; also called hIL-12
T2 sequence 1: T1 sequence 1
T2 sequence 2: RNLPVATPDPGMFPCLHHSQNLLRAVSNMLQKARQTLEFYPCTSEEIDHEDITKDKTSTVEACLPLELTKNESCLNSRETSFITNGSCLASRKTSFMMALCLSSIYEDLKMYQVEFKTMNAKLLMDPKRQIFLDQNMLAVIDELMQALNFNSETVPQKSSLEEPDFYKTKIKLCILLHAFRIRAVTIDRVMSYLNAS

B1: Antibody 62 (antibody, human IgG1, kappa, V domains shown)
VH: EVQLVQSGAEVKKPGATVKISCKASGYTFSDYYLHWVRQRPGKGLEWMGWIDPENGDTEYAPKFQGRVTITADTSTDTGYLELSSLRSEDTAVYYCAANKELRYFDVWGQGTLVTVSS
VL: DIQMTQSPSSVSASVGDRVTITCRASQSISINLHWYQQKPGKAPKLLIYFASQSISGVPSRFSGYGSGTDFSLTINSLQPEDFATYYCQQSNSFPLTFGGGTKVEIKR
B2: Antibody 66 (antibody, human IgG1, kappa, V domains shown)
VH: B1 VH with R40A
VL: B1 VL with Y65S, T85R
B3: Antibody 69 (antibody, human IgG1, kappa, V domains shown)
VH: B1 VH with R40A, R67K
VL: B1 VL with Y65S, T85R
B4: Antibody 71 (antibody, human IgG1, kappa, V domains shown)
VH: B1 VH with R40A
VL: B1 VL with Y49K, T85R
B5: Antibody 67 (antibody, human IgG1, kappa, V domains shown)
VH: B1 VH
VL: B1 VL with Y65S, T85R
B6: Antibody 63 (antibody, human IgG1, kappa, V domains shown)
VH: B1 VH with R40A, G42E
VL: B1 VL
B7: Antibody 74 (antibody, human IgG1, kappa, V domains shown)
VH: B1 VH with R40A, R67K
VL: B1 VL with Y49K, T85R
B8: Antibody 64 (antibody, human IgG1, kappa, V domains shown)
VH: B1 VH with R40A, R67K
VL: B1 VL
B9: Antibody 70 (antibody, human IgG1, kappa, V domains shown)
VH: B1 VH with G42E, R67K
VL: B1 VL with Y65S, T85R
B10: Antibody 72 (antibody, human IgG1, kappa, V domains shown)
VH: B1 VH
VL: B1 VL with Y49K, T85R
B11: Antibody 73 (antibody, human IgG1, kappa, V domains shown)
VH: B1 VH with R40A, G42E
VL: B1 VL with Y49K, T85R
B12: Antibody 65 (antibody, human IgG1, kappa, V domains shown)
VH: B1 VH with G42E, R67K
VL: B1 VL
B13: Antibody 75 (antibody, human IgG1, kappa, V domains shown)
VH: B1 VH with G42E, R67K
VL: B1 VL with Y49K, T85R
B14: Antibody 6 (antibody, human IgG1, kappa, V domains shown)
VH: EVQLQQSGADLVRSGASIKLSCTASGFNIKDYYMHWVKQRPEQGLEWIGWIDPENGDTEYAPKFQGKATMTADTSSNTAYLQLSSLTSEDTAVYYCNARKELRYFDVWGAGTTVTVSS
VL: DIVLTQSPATLSVTPGDSVSLSCRASQSISINLHWYQQKSHESPRLLIKFASQSISGIPSRFSGYGSGTDFTLSINSVETEDFGRYFCQQSNSWPLTFGAGTKLELKR
B15: Antibody 199 (antibody, human IgG1, kappa, V domains shown)
VH: QVQLVQSGAEVKKPGASVKVSCKASGYTFTDYYLHWVRQAPGQGLEWMGWIDPENGDTEYAPKFQGRVTMTTDTSTSTAYMELRSLRSDDTAVYYCAANKELRYFDVWGQGTMVTVSS
VL: EIVMTQSPATLSVSPGERATLSCRASQSISINLHWYQQKPGQAPRLLIYFASQSISGIPARFSGSGSGTEFTLTISSLQSEDFAVYYCQQSNSFPLTFGGGTKVEIKR
B16: Antibody 200 (antibody, human IgG1, kappa, V domains shown)
VH: B15 VH with F29L
VL: B15 VL
B17: Antibody 201 (antibody, human IgG1, kappa, V domains shown)
VH: B15 VH with Y60S
VL: B15 VL
B18: Antibody 202 (antibody, human IgG1, kappa, V domains shown)
VH: B15 VH with F29L, Y60S
VL: B15 VL
notes: not the murine PMA202
B19: scFv combo. # 3 (scFv)
scFv: QVQLVQSGAEVKKPGASVKVSCKASGYAFTDYYLHWVRQAPGQGLEWMGWIDPENGDTEYAPKFQGRVTMTTDTSTSTAYMELRSLRSDDTAVYYCNANKELRYFDVWGQGTMVTVSSGGGGSGGGGSGGGGSEIVMTQSPATLSVSPGERATLSCRAPQSISINLHWYQQKPGQAPRLLIYFASQSISGIPARFSGSGSGTEFTLTISSLQSEDFAVYYCQQSNSFPLTFGGGTKVEIKR
notes: scFv-80 with VH T28A; VL S26P; not shown: proprietary C-terminal FLAG tag
B20: scFv combo. # 4 (scFv)
scFv: B19 scFv with A28T, F29L
notes: scFv-80 with VH F29L; VL S26P; not shown: proprietary C-terminal FLAG tag
B21: scFv combo. # 5 (scFv)
scFv: B19 scFv with P159S, S196F
notes: scFv-80 with VH T28A; VL S63F; not shown: proprietary C-terminal FLAG tag
B22: scFv combo. # 15 (scFv)
scFv: B19 scFv with A28T, F29L, P159S, S196F
notes: scFv-80 with VH F29L; VL S63F; not shown: proprietary C-terminal FLAG tag
B23: scFv combo. # 16 (scFv)
scFv: B19 scFv with A28T, F29L, P159S, S185R
notes: scFv-80 with VH F29L; VL S52R; not shown: proprietary C-terminal FLAG tag
B24: Antibody 206 (antibody, human IgG1, kappa, V domains shown)
VH: B15 VH with T28A
VL: B15 VL

molecular target: T1, human IL-23; assay: ELISA, coated IL-23
In short: (§1)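 Binding values are absorbance readings. After cytokine (1 μg/mL, carbonate buffer pH 9.6) was coated onto Maxisorp plates overnight at 4° C and the plates were blocked with 1% BSA in PBS, antibody titrations were bound for 1 hour at 25° C and detected with HRP-linked goat anti-human IgG or anti-murine immunoglobulin (1:2000). Color from TMB, stopped with 1M HCl, was read at 450 nm with 620 nm as reference.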

| Binder | binding result |
| --- | --- |
| B1 | binds |
| B2 | binds |
| B3 | binds |
| B4 | binds |
| B5 | binds |
| B6 | binds |
| B7 | binds |
| B8 | binds |
| B9 | binds |
| B10 | binds |
| B11 | binds |
| B12 | binds |
| B13 | binds |

molecular target: T2, human IL-12; assay: ELISA, coated IL-12
In short: as §1

| Binder | binding result |
| --- | --- |
| B1 | binds |
| B2 | binds |
| B3 | binds |
| B4 | binds |
| B5 | binds |
| B6 | binds |
| B7 | binds |
| B8 | binds |
| B9 | binds |
| B10 | binds |
| B11 | binds |
| B12 | binds |
| B13 | binds |

molecular target: T2, human IL-12; assay: ELISA, coated IL-12; remark: another data set of the same source
In short: as §1

| Binder | binding result |
| --- | --- |
| B14 | no binding (tested: not given) |

molecular target: T1, human IL-23; assay: ELISA, coated IL-23; remark: another data set of the same source
Experimental: (§2) IL-12 (Peprotech), IL-23 (Ebioscience™), IL-12p40 (Ebioscience™) or IL-12p80 (Peprotech), was diluted to 1 μg/mL in carbonate coating buffer ([…] pH 9.6) and coated onto a 96 well plate (Nunc™, Maxisorp™) overnight at 4° C. The plate was then washed three times with wash buffer (0.01M PBS pH 7.2, 0.05% Tween-20) and then three times with 0.01M PBS pH 7.2. The wells were then blocked by adding 200 μl of blocking buffer (1% w/v BSA in 0.01 M PBS pH 7.2) to each well and incubating the plate at 25° C. for 1 hour. The antibody was diluted in antibody diluent (1% w/v BSA, 0.05% Tween-20 in 0.01M PBS pH 7.2) sufficient to generate a titration curve. The wells were incubated with the antibody for 1 hour at 25° C. The plate was then washed as previously described. Goat anti-human immunoglobulin G (H+L) antibody HRP conjugate (Zymed®) at 1:2000 in antibody diluent was used to detect bound primary antibody. Goat anti-murine immunoglobulin antibody HRP conjugate (Dako) at 1:2000 in antibody diluent was used to detect bound murine antibody. After incubation at 25° C. for 1 hour the plate was washed again as previously described. TMB substrate solution (Zymed®) was added to each well and the colour allowed to develop; the reaction was terminated by adding 1M HCl to the wells. The absorbance of each well was determined at 450 nm (ref. 620 nm).

| Binder | binding result |
| --- | --- |
| B15 | binds |
| B16 | binds |
| B17 | binds |
| B18 | binds |

molecular target: T2, human IL-12; assay: SPR, single 81 nM analyte, scFv via FLAG

| Binder | Kd [nM] | koff [s⁻¹] | kon [M⁻¹ s⁻¹] |
| --- | --- | --- | --- |
| B19 | 0.029 | 4.5e-05 | 1.6e+06 |
| B20 | 0.027 | 4.8e-05 | 1.8e+06 |
| B21 | 0.038 | 6.5e-05 | 1.7e+06 |
| B22 | 0.039 | 6.4e-05 | 1.7e+06 |
| B23 | 0.05 | 7.5e-05 | 1.5e+06 |

molecular target: T2, human IL-12; assay: ELISA, coated IL-12; remark: another data set of the same source
Experimental: as §2

| Binder | binding result |
| --- | --- |
| B15 | binds |
| B16 | binds |
| B24 | binds |
| B17 | binds |
| B18 | binds |
